The source of these data is publication PMC7755903 (Nature Communications, 2020).

Assay [1] addresses T1, human βI-tryptase monomer (Homo sapiens, UniProt Q15661).
T1 construct: mature human βI-tryptase, Ile31-Pro275 of Uniprot Q15661 (Ile16-Pro246 in chymotrypsinogen numbering); The monomer used in SPR and HDX-MS; also called monomeric βI-tryptase; monomeric β-tryptase
As to the kind of experiment: SPR; Biacore T200; E104 IgG variants captured on immobilised mouse anti-human IgG (Fc) antibody on CM5 chips; threefold dilutions of human βI-tryptase monomer injected at 30 µL/min, 25 °C; 1:1 Langmuir model; n = 2. Particulars: both partners purified.
T1 sequence (Q15661 31-275): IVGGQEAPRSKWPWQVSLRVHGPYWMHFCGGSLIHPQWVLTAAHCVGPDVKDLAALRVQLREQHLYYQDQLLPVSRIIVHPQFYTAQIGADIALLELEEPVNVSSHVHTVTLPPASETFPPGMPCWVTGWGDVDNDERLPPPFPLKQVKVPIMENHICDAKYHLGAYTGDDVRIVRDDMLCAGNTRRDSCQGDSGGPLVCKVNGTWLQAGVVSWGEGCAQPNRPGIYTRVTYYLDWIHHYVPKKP

Assay [2] has as its target T2, human βI-tryptase monomer (Homo sapiens, UniProt Q15661).
T2 construct: mature wild-type human βI-tryptase, Uniprot Q15661, Ile31-Pro275 (Ile16-Pro246 in chymotrypsinogen numbering); The SPR methods say only 'human βI-tryptase monomer'; The methods describe the monomeric form as the zymogen, which still carries the N-terminal His6 tag and enterokinase site before Ile16; also called monomeric βI-tryptase; β-tryptase; source: Trichoplusia ni cells (baculovirus, …)
As to the kind of experiment: SPR; Biacore T200; antibody captured on a CM5 chip by immobilised mouse anti-human IgG (Fc); threefold dilutions of βI-tryptase monomer injected at 30 µL/min, 25 °C, 3-min association, 10-min dissociation; 1:1 Langmuir fit; n = 2. The settings on record: both partners purified. Background: Surface plasmon resonance follows binding to a sensor surface in real time, without labels.
T2 sequence (Q15661 31-275): as above

Where “and” joins values, the source holds several entries; their conditions need not be identical. Identical values can stand only once.

B1: humanized E104.v1 IgG1 (antibody, V domains shown)
VH: EVQLVESGPGLVKPSETLSLTCTVSRFSLIGYAITWIRQPPGKGLEWIGGISSAATTFYSSWAKSRVTISVDTSKNQFSLKLSSVTAADTAVYYCARDPRGYGAALDRLDLWGQGTLVTVSS
VL: DIQMTQSPSSLSASVGDRVTITCQSIKSVYNNRLGWYQQKPGKAPKLLIYETSILTSGVPSRFSGSGSGTDFTLTISSLQPEDFATYYCAGGFDRSGDTTFGQGTKVEIK
notes: variable domain of the heavy chain as in m6 (PDB 6VVU, Fab heavy chain); human IgG1 heavy chain constant region; as the light chain of m6 (PDB 6VVU, Fab light chain); IgG1; also called IgG1.v1; source: 293 cells, transient transfection, purified (MabSelect SuRe, SEC); copies: 2 + 2
In assay [1], B1 came in with a Kd of 0.5 ± 0.02 nM.

B2: E104.v2 IgG2 (antibody, V domains shown)
VH: EVQLVESGPGLVKPSETLSLTCTVSRFSLIGYAITWIRQPPGKGLEWIGGISSAATTFYSSWAKSRVTISRDTSKNQVSLKLSSVTAADTAVYYCARDPRGYGAALDRLDLWGQGTLVTVSS
VL: DIQMTQSPSSLSASVGDRVTITCQSIKSVYNNRLGWYQQKPGKAPKLLIYETSILTSGVPSRFSGSGSGTDFTLTISSLQPEDFATYYCAGGFDRSGDTTFGQGTKVEIK
notes: variable domain of the heavy chain as in m6 (PDB 6VVU, Fab heavy chain) with V71R and F78V (Kabat numbering); human IgG2 heavy chain constant region; upper hinge printed as ERKCCVE; as the light chain of m6 (PDB 6VVU, Fab light chain); IgG2 isotype version of E104.v2; source: 293 cells, transient transfection, purified (MabSelect SuRe, SEC); copies: 2 + 2
For B2, the dissociation constant Kd in assay [1] turned out to be 0.6 ± 0.1 nM.

B3: humanized E104.v2 IgG2 (antibody, V domains shown)
VH: EVQLVESGPGLVKPSETLSLTCTVSRFSLIGYAITWIRQPPGKGLEWIGGISSAATTFYSSWAKSRVTISRDTSKNQVSLKLSSVTAADTAVYYCARDPRGYGAALDRLDLWGQGTLVTVSS
VL: DIQMTQSPSSLSASVGDRVTITCQSIKSVYNNRLGWYQQKPGKAPKLLIYETSILTSGVPSRFSGSGSGTDFTLTISSLQPEDFATYYCAGGFDRSGDTTFGQGTKVEIK
notes: humanized E104.v2 VH: as the VH of Sm2 (E104.v1, PDB 6VVU heavy chain) with V71R and F78V (Kabat numbering); human IgG2 heavy chain constant region, the CH1 domain up to the upper hinge; upper hinge of human IgG2; human IgG2 heavy chain constant region after the upper hinge (core and lower hinge, CH2, CH3); IgG2 isotype version of E104.v2; copies: 2 + 2
Consider B3, for which the equilibrium dissociation constant (Kd) in assay [2] is 0.537 nM and 0.672 nM.

B4: E104.v2 IgG1 hinge variant G1 + GGS (antibody, V domains shown)
VH: EVQLVESGPGLVKPSETLSLTCTVSRFSLIGYAITWIRQPPGKGLEWIGGISSAATTFYSSWAKSRVTISRDTSKNQVSLKLSSVTAADTAVYYCARDPRGYGAALDRLDLWGQGTLVTVSS
VL: DIQMTQSPSSLSASVGDRVTITCQSIKSVYNNRLGWYQQKPGKAPKLLIYETSILTSGVPSRFSGSGSGTDFTLTISSLQPEDFATYYCAGGFDRSGDTTFGQGTKVEIK
notes: variable domain of the heavy chain as in m6 (PDB 6VVU, Fab heavy chain) with V71R and F78V (Kabat numbering); human IgG1 heavy chain constant region before the upper hinge (CH1); upper hinge of the variant; human IgG1 heavy chain constant region after the upper hinge (core hinge from C226, CH2, CH3); as the light chain of m6 (PDB 6VVU, Fab light chain); IgG1 with an extended upper hinge; source: …
Take B4: in assay [1], the Kd was determined as 0.5 ± 0.05 nM.

B5: E104.v2 IgG1 hinge variant G1-H (antibody, V domains shown)
VH: EVQLVESGPGLVKPSETLSLTCTVSRFSLIGYAITWIRQPPGKGLEWIGGISSAATTFYSSWAKSRVTISRDTSKNQVSLKLSSVTAADTAVYYCARDPRGYGAALDRLDLWGQGTLVTVSS
VL: DIQMTQSPSSLSASVGDRVTITCQSIKSVYNNRLGWYQQKPGKAPKLLIYETSILTSGVPSRFSGSGSGTDFTLTISSLQPEDFATYYCAGGFDRSGDTTFGQGTKVEIK
notes: variable domain of the heavy chain as in m6 (PDB 6VVU, Fab heavy chain) with V71R and F78V (Kabat numbering); human IgG1 heavy chain constant region before the upper hinge (CH1); upper hinge of the variant; human IgG1 heavy chain constant region after the upper hinge (core hinge from C226, CH2, CH3); as the light chain of m6 (PDB 6VVU, Fab light chain); IgG1 with a shortened upper hinge; source: …
With B5, in assay [1], binding was characterised by a dissociation constant (Kd) of 0.6 ± 0.1 nM.

B6: E104.v2 IgG1 hinge variant G1-KTH (antibody, V domains shown)
VH: EVQLVESGPGLVKPSETLSLTCTVSRFSLIGYAITWIRQPPGKGLEWIGGISSAATTFYSSWAKSRVTISRDTSKNQVSLKLSSVTAADTAVYYCARDPRGYGAALDRLDLWGQGTLVTVSS
VL: DIQMTQSPSSLSASVGDRVTITCQSIKSVYNNRLGWYQQKPGKAPKLLIYETSILTSGVPSRFSGSGSGTDFTLTISSLQPEDFATYYCAGGFDRSGDTTFGQGTKVEIK
notes: as for B5
In assay [1], B6 came in with a Kd of 0.5 ± 0.09 nM.

B7: E104.v2 IgG1 hinge variant G1-TH (antibody, V domains shown)
VH: EVQLVESGPGLVKPSETLSLTCTVSRFSLIGYAITWIRQPPGKGLEWIGGISSAATTFYSSWAKSRVTISRDTSKNQVSLKLSSVTAADTAVYYCARDPRGYGAALDRLDLWGQGTLVTVSS
VL: DIQMTQSPSSLSASVGDRVTITCQSIKSVYNNRLGWYQQKPGKAPKLLIYETSILTSGVPSRFSGSGSGTDFTLTISSLQPEDFATYYCAGGFDRSGDTTFGQGTKVEIK
notes: as for B5
In assay [1], B7 yielded a dissociation constant (Kd) of 0.5 ± 0.07 nM.

B8: E104.v2 IgG1 hinge variant G1 + G (antibody, V domains shown)
VH: EVQLVESGPGLVKPSETLSLTCTVSRFSLIGYAITWIRQPPGKGLEWIGGISSAATTFYSSWAKSRVTISRDTSKNQVSLKLSSVTAADTAVYYCARDPRGYGAALDRLDLWGQGTLVTVSS
VL: DIQMTQSPSSLSASVGDRVTITCQSIKSVYNNRLGWYQQKPGKAPKLLIYETSILTSGVPSRFSGSGSGTDFTLTISSLQPEDFATYYCAGGFDRSGDTTFGQGTKVEIK
notes: humanized E104.v2 VH: as the VH of Sm2 (E104.v1, PDB 6VVU heavy chain) with V71R and F78V (Kabat numbering); human IgG1 heavy chain constant region, the CH1 domain up to the upper hinge; human IgG1 heavy chain constant region after the upper hinge (core and lower hinge, CH2, CH3); IgG1 with extended upper hinge; copies: 2 + 2
Regarding B8, the Kd in assay [2] is 0.538 nM and 0.521 nM.

B9: E104.v2 IgG1 hinge variant G1.P5 (antibody, V domains shown)
VH: EVQLVESGPGLVKPSETLSLTCTVSRFSLIGYAITWIRQPPGKGLEWIGGISSAATTFYSSWAKSRVTISRDTSKNQVSLKLSSVTAADTAVYYCARDPRGYGAALDRLDLWGQGTLVTVSS
VL: DIQMTQSPSSLSASVGDRVTITCQSIKSVYNNRLGWYQQKPGKAPKLLIYETSILTSGVPSRFSGSGSGTDFTLTISSLQPEDFATYYCAGGFDRSGDTTFGQGTKVEIK
notes: variable domain of the heavy chain as in m6 (PDB 6VVU, Fab heavy chain) with V71R and F78V (Kabat numbering); human IgG1 heavy chain constant region before the upper hinge (CH1); upper hinge of the variant; human IgG1 heavy chain constant region after the upper hinge (core hinge from C226, CH2, CH3); as the light chain of m6 (PDB 6VVU, Fab light chain); IgG1 with five prolines in the upper hinge; …
Take B9: the dissociation constant (Kd) in assay [1] worked out at 0.4 ± 0.1 nM.

Broadly, the Kd is the equilibrium constant for the complex coming apart. Higher therefore signals a looser complex.
